Laboratory results published in patent US20260242450A1.

What was measured:
[1] = target: HIV-1 envelope proteins of the panel of 100 clade C HIV-1 pseudoviruses (Subtype C panel)
[2] = target: HIV-1 envelope proteins of the multiclade panel of 119 pseudoviruses
[3] = target: HIV-1 envelope proteins of the panel of 7 pseudoviruses selected from the "Resistant panel to CD4bs bNAbs"
[4] = target: HIV-1 envelope proteins of the panel of 9 pseudoviruses resistant against CD4bs bNAbs (constituents of the 119 multiclade and Subtype C panels)
[5] = target: HIV-1 envelope proteins of the panel of 12 global reference pseudovirus strains of HIV-1 ("global panel")
[6] = target: HIV-1 envelope proteins of the panel of 185 pseudoviruses generated from virus sequences obtained from the Antibody Mediated Prevention (AMP) trials
[7] = target: HIV-1 envelope proteins of the panel of 8 pseudoviruses insensitive against neutralization by CD4bs bNAbs (constituents of the 119 multiclade panel)

B1: 04_A06 (antibody, V domains shown)
VH: SVRLDQSGTAVKKPGASVRVSCRAPDSFTVYRPRLSAYFIGEFNIHWLRQAPGQGLEWLGFVNIFRGAVKYSSRFQGRITITRDTSSETSYLDLGALKADDTATYYCAWDKNVDDNPWRLDSWGQGTLVIVSS
VL: YIQVTQSPSSLSASIGDTITVACEVSQDVGWAVNWYHQRPGRPPYNLIYTAHNLAPGVASRFRGSRVGTYFTLTINNLLPEDVGTYYCQVFDSFAPGGTRVDLR
geometric mean IC50, TZM-bl cell pseudovirus neutralization assay [1]: 0.057 µg/mL | neutralizing activity, TZM-bl cell pseudovirus neutralization assay (breadth) [1]: 99% | geometric mean IC50, TZM-bl cell pseudovirus neutralization assay [2]: 0.036 µg/mL | neutralizing activity, TZM-bl cell pseudovirus neutralization assay (breadth) [2]: 99% | IC50, TZM-bl cell pseudovirus neutralization assay [3]: 0.153 µg/mL | neutralizing activity, TZM-bl cell pseudovirus neutralization assay (breadth) [3]: 86% | neutralizing activity, TZM-bl cell pseudovirus neutralization assay (breadth) [4]: 100% | geometric mean IC50, TZM-bl cell pseudovirus neutralization assay [5]: 0.038 µg/mL | neutralizing activity, TZM-bl cell pseudovirus neutralization assay (breadth) [5]: 100% | GeoMean IC50, TZM-bl cell pseudovirus neutralization assay [6]: 0.084 µg/mL | neutralizing activity, TZM-bl cell pseudovirus neutralization assay (breadth) [6]: < 98%

B2: 04_B09 (antibody, V domains shown)
VH: SVRLDQSGTAVKKPGASVRVSCRAPDSFTVYRPRLSAYFIGEFNIHWLRQAPGQGLEWLGFVNIFRGAVKYSSAFRGRITITRDTSLETSYLDLGALKPDDTATYFCAWDKNVDDNPWRLDSWGQGTLVVVSS
VL: YIQVTQSPSSLSASVGDTITVACQVSQDVGWAVNWYHQRPGRPPYNLIYTTSNLAPGVASRFRGTRVATYFTLTINNLLPEDVGTYYCQVFESFAPGGTRVDLR
geometric mean IC50, TZM-bl cell pseudovirus neutralization assay [5]: < 0.05 µg/mL | neutralizing activity, TZM-bl cell pseudovirus neutralization assay (breadth) [5]: 100%

B3: 05_C07 (antibody, V domains shown)
VH: HVQLWQSGAEVKKPGASVKISCSAWGFGTRSGYTFRDYRIHWVRQVPRQGFEWMGHLHPAYGAVNYARQFQGRIIMTREVSFDGSGGTVYMELRSLRSDDTATYYCVTHKLYDGEDASDLTWRLDPWGQGTRVTVSS
VL: GVSLTQSPASLCASVGDRVTFTCQASQDITNAINWYQLRPGKTPKLMIHDGSTLRRGVPSRFAGSGFGTRFTFTIDNLQPEDLATYFCQHYEFFPPAGTQVDFN
geometric mean IC50, TZM-bl cell pseudovirus neutralization assay [5]: < 0.05 µg/mL | neutralizing activity, TZM-bl cell pseudovirus neutralization assay (breadth) [5]: 100%

B4: 01_B01 (antibody, V domains shown)
VH: HVQLWQSGAEVKKPGASVKISCAAWGFGTTSGYSFRDYRIHWVRQVPGQGFQWMGHIQPRYGAVNYAHQFQGRITMTREVSFDASGGTAYMELRSLRSDDTATYYCVTHKLYDGEDASDLAWRLDPWGQGTRVTVSS
VL: GVHLTQSPASLSASVGDRVTFTCQASQDITNAINWYQLRPGKTPKLMIHDGSTLRRGVPSRFAGGGFGTKFTFTIDNLQPEDLATYFCQHYEFFPPAGTQVELN
geometric mean IC50, TZM-bl cell pseudovirus neutralization assay [5]: < 0.05 µg/mL | neutralizing activity, TZM-bl cell pseudovirus neutralization assay (breadth) [5]: 100%

B5: 01_D03 (antibody, V domains shown)
VH: HVQLWQSGAEVKKPGASVKISCSAWGFGTTSGYSFRDYRVHWVRHIAGQGFQWMGHMQPRYGAVNYARQFQGRITMTREVSFDASGGTAYMELRSLRSDDTAVYYCVTHKLYDGEDASDLTWRLDPWGQGTRVIVSS
VL: GVHLTQSPASLSASVGDRVTFTCQASQDITNAINWYQLRPGKTPKLMIHDGSTLRRGVPSRFAGSGFGTKFTFTIDNLQPEDLATYFCQHYEFFPPVGTQVELN
neutralizing activity, TZM-bl cell pseudovirus neutralization assay (breadth) [7]: 88% | geometric mean IC50, TZM-bl cell pseudovirus neutralization assay [5]: 0.021 µg/mL | neutralizing activity, TZM-bl cell pseudovirus neutralization assay (breadth) [5]: 100%
